Data as given in paper PMC11100904, “How short peptides can disassemble ultra-stable tau fibrils extracted from Alzheimer’s disease brain by a strain-relief mechanism” (Research Square, 2024).

Biological target: T1, 15N,13C-labeled tau K18+ (residues Gln244-Glu380 of 4R tau) (UniProt P10636-8 244-380)
T1 construct: Uniformly 15N,13C isotope-labelled for NMR; purified as the unlabeled protein; also called tau K18+ monomer; tau monomers; source: E. coli BL21-Gold, M9 medium with 15NH4Cl and 13C-glucose, purified (boiling, HiTrap SP HP ion exchange, Superdex 75)
T1 sequence (P10636 561-697): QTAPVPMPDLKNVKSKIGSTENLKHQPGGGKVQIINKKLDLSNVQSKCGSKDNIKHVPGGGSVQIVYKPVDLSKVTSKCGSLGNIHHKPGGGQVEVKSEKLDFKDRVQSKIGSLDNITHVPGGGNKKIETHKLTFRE
Assay: NMR titration; 1H-15N HSQC, 0.1 mM 15N,13C-labeled tau K18+ in 100 mM KCl, 20 mM NaH2PO4, 1 mM TCEP, 5%/95% D2O/H2O, pH 7.0, without or with 1 mM peptide (10-fold molar excess), 25 °C; chemical shift perturbation; one concentration, changes seen over time (2.5 months at 4 °C for D-TLKIVWI)
Conditions: both partners purified

binding result: binds
B1: L-TLKIVWI (peptide)
peptide: TLKIVWI
notes: L-enantiomer of the designed peptide D-TLKIVWI; All L-amino acids; also called L-TLKIVWX (X = I); source: synthetic peptide (GenScript, purified to ≥98%)
